Paper PMC8399836

Biological target: individual G6PD protein (g6pd region of the fused G6PD::6PGL enzyme from Giardia lamblia) (Giardia lamblia)
Experiment: SEC; size exclusion chromatography (gel filtration) of the purified individual G6PD protein; one peak with G6PD activity; column and buffer not told in the text shown

individual G6PD protein (g6pd region of the fused G6PD::6PGL enzyme from Giardia lamblia) (domain or fragment)
stoichiometry N: 2
